{
  "source": "paper PMC10954734",
  "about": "“Structure of antiviral drug bulevirtide bound to hepatitis B and D virus receptor protein NTCP” (Nature Communications, 2024)",
  "key": {"[1]": {"tested_on": "SVPs from patient ID1 (HBV GtD)", "assay": "Binding of nanodisc-reconstituted NTCP-eYFP to SVPs of patient ID1 (GtD)", "conditions": "25–100 nM", "protocol": "(§1) The lipids were then mixed with detergent-purified NTCP and incubated at room temperature for 5 min with gentle agitation. Next, membrane scaffold protein (MSP1D1) was added to the mixture and incubated for 20 min at room temperature. […] Bio-Beads were removed by passing through a gravity column (Bio-Rad), and the mixture was briefly spun at 4000 × g at 4 °C to remove excess lipids. […] Peak fractions containing nanodisc-reconstituted NTCP were collected and concentrated.\n(§2) Subviral particles (SVPs) were isolated from plasma of two chronic HBV-infected patients by three consecutive ultracentrifugation steps according to published protocols[13]. Briefly, SVP were separated from virions using rate zonal ultracentrifugation through a sucrose density gradient. SVP-containing fractions were pooled and further purified using caesium chloride (CsCl) flotation ultracentrifugation. Pooled SVP-fractions were further purified using a second sucrose density gradient and concentrated by ultrafiltration. […] For fluorescence measurement, 100 μL HBS buffer was added to each well and the fluorescence intensity of eYFP was detected at 485 nm excitation and 535 nm emission on a fluorescence microplate reader (TECAN Life Sciences)."}, "[2]": {"tested_on": "SVPs from patient K826 (HBV GtA)", "assay": "Binding of nanodisc-reconstituted NTCP-eYFP to SVPs of patient K826 (GtA)", "conditions": "25–100 nM", "protocol": "as §1, §2"}},
  "data": [
    {"molecule": "NTCP G158R: nanodisc-reconstituted NTCP-eYFP variant carrying the mutation G158R (protein, left off: eYFP, C-terminal, kept | rho-1D4, C-terminal, state not stated) MEAHNASAPFNFTLPPNFGKRPTDLALSVILVFMLFFIMLSLGCTMEFSKIKAHLWKPKGLAIALVAQYGIMPLTAFVLGKVFRLKNIEALAILVCGCSPGGNLSNVFSLAMKGDMNLSIVMTTCSTFCALGMMPLLLYIYSRGIYDGDLKDKVPYKRIVISLVLVLIPCTIGIVLKSKRPQYMRYVIKGGMIIILLCSVAVTVLSAINVGKSIMFAMTPLLIATSSLMPFIGFLLGYVLSALFCLNGRCRRTVSMETGCQNVQLCSTILNVAFPPEVIGPLFFFPLLYMIFQLGEGLLLIAIFWCYEKFKTPKDKTKMIYTAATTEETIPGALGNGTYKGEDCSPCTA", "values": [
      {"measurement": "binding to GtD SVPs (in words)", "setting": "[1]", "value": "abolished binding to the SVPs"},
      {"measurement": "binding to GtA SVPs (in words)", "setting": "[2]", "value": "abolished binding to the SVPs"}
    ]}
  ]
}
